US20260000736A1, “PURIFIED LACTOFERRIN COMPOSITIONS AND METHODS OF USE” (Lactea Therapeutics LLC, priority 2023, published 2026)
Values joined by “and” are separate entries in the source; they are usually repeats but may differ in a detail not shown here. Equal entries are not always repeated.

Columns and labels:
[1] = system: Extra-Cellular Matrix (ECM) of Caco-2 cells; experiment: Lactoferrin enrichment at the ECM by immunofluorescent imaging in Caco-2 cells; format: cell-based, human; conditions: varying concentrations, 37° C. for two hours
Procedure: To assess bioactivity of Lactoferrin, particularly for its potential as an antiviral, binding to the ECM was assessed. Purified Lactoferrin was produced according to Example 1. Caco-2 cells, a human-derived cell culture, cells were allowed to grow for three days after plating on a coverslip such that the cells could proliferate, and the ECM could fully develop. Purified Lactoferrin was then added to the cells at varying concentrations at 37° C. for two hours to allow it to bind as theorized. To directly observe the localization of the API we used Immunofluorescent (IF) imaging and stained both the API and E-cadherin, a cell membrane marker.
Primary localization internally was also observed at low concentrations, but given Lactoferrin has known intracellular roles and a receptor allowing for its uptake, fractional localization of Lactoferrin to the intracellular space was expected. To quantify the localization of the API, the absolute intensity of the fluorescent signal both just outside/along the E-cadherin mark as well as inside the cell was measured.

[2] = Differential Scanning Calorimetry (DSC) of apolactoferrin and hololactoferrin forms; format: physicochemical; conditions: 10 mg/mL
Procedure: Di[…] Calorimetry (DSC) was used to assess the hololactoferrin and apolactoferrin forms through monitoring unfolding temperatures of lactoferrin samples using a nanoDSC (TA Instruments, Lindon, UT) according to standard DSC protocols known to those of skill in the art (e.g., see Hinz et al “M[…] […] OF […] ON […] DI[…] CALORIMETRY”; herein incorporated by reference for all purposes.
API-E2 Lactoferrin (10 mg/mL), produced as described herein, was assessed by DSC. […] The lack of other peaks indicates the lack of contaminants and impurities and can assess API-E2 as ˜100%. […] Additionally, the lack of other peaks also indicated the purity of API-E2 Lactoferrin. […] The API-E2 hololactoferrin peak has a Tm of 88.38+/−0.8 C and a delta H of 632.7+/−7.2 kJ/mol. The hololactoferrin natively accounted for on average 8.74+/−1.39% of the total API-E2 lactoferrin with apolactoferrin accounting for the rest in the samples tested. However, the hololactoferrin percentage can be naturally variable. The API-E2 was calculated by this technique to contain virtually 100% pure lactoferrin.
The assay was also performed with heat-treated API-E2 Lactoferrin. API-E2 Lactoferrin was heated across a range of 50-100° C.
Lab-grade standard lactoferrin and a commercially available supplement-grade lactoferrin were also assessed by DSC under the conditions used to assess API-E2 above.

[3] = DSC iron binding capability with excess FeCl3; conditions: FeCl3 added in 1000× molar excess
Procedure: The DSC assay was further used to assess Lactoferrin bioactivity, specifically the iron binding capability of the API-E2 Lactoferrin. Iron chloride (FeCl3) was added in 1000× molar excess to API-E2 Lactoferrin. In the presence of excess iron, the API-E2 lactoferrin will bind the iron to its open iron binding site.

E. coli 0157 = experiment: Biofilm formation, crystal violet assay; format: cell-based; conditions: for Biofilm Inhibition, Replicate 1 / Biofilm Inhibition, Replicate 2 / Biofilm Inhibition, Replicate 3: 24 hours
Procedure: Lactoferrin was assessed for biofilm growth inhibition. To study the relative concentration dependent efficacy of Lactea-Lf and the Sigma Aldrich research standard Lactoferrin in inhibiting biofilm formation, Lf was added at concentrations ranging from 2 mg/mL to 0.31 mg/mL (2-fold serial dilution curve) to E. coli 0157 in LB seeded at 10∝CFU/mL and incubated for 37° C. for 24 hours. Lactea Lactoferrin (Lactea-Lf) was produced as described in the above examples. The biofilm was stained using a standard crystal violet assay. A quantification of the inhibition of biofilm formation (FIG. 18A) and an image of a representative plate (FIG. 18B) are shown.

Bifidobacterium longum = experiment: Planktonic growth in culture, OD600; format: cell-based; conditions: 10-fold serial dilution of Lf, 18 hours
Enterobacter cloacae = experiment: Biofilm formation, crystal violet assay; format: cell-based; conditions: 24 hours of growth
Streptococcus mutans = experiment: Biofilm formation, crystal violet assay; format: cell-based; conditions: 24 hours of growth
Enterococcus faecalis = experiment: Biofilm formation, crystal violet assay; format: cell-based; conditions: 24 hours of growth
Candida auris = experiment: Biofilm formation, crystal violet assay; format: cell-based; conditions: 24 hours of growth
[4] = system: mice with two 10 mm puncture wounds through the skin; experiment: Mouse puncture wound model, survival; format: in vivo
Procedure: Lactea Lactoferrin (Lactea-Lf) was produced as described in the above examples and freeze-dried by lyophilization into a powder. Lactea-Lf was then administered as the freeze-dried powder in a variety of animal wound contexts.
In a first assessment in a mouse model setting, mice were anesthetized with isoflurane and two 10 mm puncture wounds were made through the skin of each mouse on the back. Three of the mice were treated with Lf added as a freeze dried powder directly into the wound bed while anesthetized immediately after wounds were made, while the three other mice were left completely untreated. Mice were then transferred to non-sterile housing and observed daily.

[5] = DSC of additional batches, ratio of apo to holo-Lactoferrin; format: physicochemical; conditions: 5 mg/mL, 30° C. to 100° C. range
Procedure: Additional batches of Lactea-Lf as described in the above examples and the relative ratio of apo to holo-Lactoferrin was assessed by Differential Scanning Calorimetry (DSC). Lactoferrin samples were loaded at 5 mg/mL into a NanoDSC (TI Instruments) and measured in the 30° C. to 100° C. range. […] It is likely that these peaks are smaller as the sample is highly impure or contains already denatured product.

[6] = format: binding; conditions: ITC, Lf 5 mg/mL in 100 mM MOPS buffer pH 7, HS approximately 100 µM

B1: Lactea-Lf: bovine lactoferrin purified from raw untreated milk by cation exchange chromatography and filtration according to Example 1 (protein)
chain: APRKNVRWCTISQPEWFKCRRWQWRMKKLGAPSITCVRRAFALECIRAIAEKKADAVTLDGGMVFEAGRDPYKLRPVAAEIYGTKESPQTHYYAVAVVKKGSNFQLDQLQGRKSCHTGLGRSAGWVIPMGILRPYLSWTESLEPLQGAVAKFFSASCVPCIDRQAYPNLCQLCKGEGENQCACSSREPYFGYSGAFKCLQDGAGDVAFVKETTVFENLPEKADRDQYELLCLNNSRAPVDAFKECHLAQVPSHAVVARSVDGKEDLIWKLLSKAQEKFGKNKSRSFQLFGSPPGQRDLLFKDSALGFLRIPSKVDSALYLGSRYLTTLKNLRETAEEVKARYTRVVWCAVGPEEQKKCQQWSQQSGQNVTCATASTTDDCIVLVLKGEADALNLDGGYIYTAGKCGLVPVLAENRKTSKYSSLDCVLRPTEGYLAVAVVKKANEGLTWNSLKDKKSCHTAVDRTAGWNIPMGLIVNQTGSCAFDEFFSQSCAPGRDPKSRLCALCAGDDQGLDKCVPNSKEKYYGYTGAFRCLAEDVGDVAFVKNDTVWENTNGESTADWAKNLNREDFRLLCLDGTRKPVTEAQSCHLAVAPNHAVVSRSDRAAHVKQVLLHQQALFGKNGKNCPDKFCLFKSETKNLLFNDNTECLAKLGGRPTYEEYLGTEYVTAIANLKKCSTSPLLEACAFLTR
For B1, the “Lactoferrin localization at the ECM (IF imaging)” value [1] was “enrichment at the ECM was observed as concentration increased”, the “% of Total, Apolactoferrin” value [2] was 91.26 +/− 1.39% and the “% of Total, Hololactoferrin” value ([2]; listed as API-E2) was 8.74+/−1.39%. For the same molecule, the “Delta H, Apolactoferrin peak” value ([2]; listed as API-E2) was 111.4 ± 2.2 kcal/mol, the “Delta H, Hololactoferrin peak” value ([2]; listed as API-E2) was 151.2 ± 1.72 kcal/mol and the “Tm, Apolactoferrin peak” value ([2]; listed as API-E2) was 60.2+/−0.8 C and 60.2 +/− .8 C. The “Tm, Hololactoferrin peak” value ([2]; listed as API-E2) was 88.38+/−0.8 C and 88.38 +/− .8 C, the “available Apolactoferrin shifted to the Hololactoferrin form” value [3] was 100% and the “concentrations at which potent biofilm inhibition is seen” value (E. coli 0157; E. coli 0157, 24 hours) was ≥ 100 µg/mL. For the same molecule, the “Biofilm Inhibition, Replicate 1” value (E. coli 0157; [Lf] 0.031 mg/mL) was 0.6591, the “Biofilm Inhibition, Replicate 2” value (E. coli 0157; [Lf] 0.031 mg/mL) was 0.8959 and the “Biofilm Inhibition, Replicate 3” value (E. coli 0157; [Lf] 0.031 mg/mL) was 0.7811. The “Biofilm Inhibition, Replicate 1” value (E. coli 0157; [Lf] 0.063 mg/mL) was 0.1874, the “Biofilm Inhibition, Replicate 2” value (E. coli 0157; [Lf] 0.063 mg/mL) was 0.1722 and the “Biofilm Inhibition, Replicate 3” value (E. coli 0157; [Lf] 0.063 mg/mL) was 0.2125. The “Biofilm Inhibition, Replicate 1” value (E. coli 0157; [Lf] 0.125 mg/mL) was 0.03395, the “Biofilm Inhibition, Replicate 2” value (E. coli 0157; [Lf] 0.125 mg/mL) was 0.1076 and the “Biofilm Inhibition, Replicate 3” value (E. coli 0157; [Lf] 0.125 mg/mL) was 0.0806. The “Biofilm Inhibition, Replicate 1” value (E. coli 0157; [Lf] 0.25 mg/mL) was 0.04609, the “Biofilm Inhibition, Replicate 2” value (E. coli 0157; [Lf] 0.25 mg/mL) was 0.07314 and the “Biofilm Inhibition, Replicate 3” value (E. coli 0157; [Lf] 0.25 mg/mL) was 0.07011. For the same molecule, the “Biofilm Inhibition, Replicate 1” value (E. coli 0157; [Lf] 0.5 mg/mL) was 0.04858, the “Biofilm Inhibition, Replicate 2” value (E. coli 0157; [Lf] 0.5 mg/mL) was 0.0748 and the “Biofilm Inhibition, Replicate 3” value (E. coli 0157; [Lf] 0.5 mg/mL) was 0.08915. The “Biofilm Inhibition, Replicate 1” value (E. coli 0157; [Lf] 1 mg/mL) was 0.02346, the “Biofilm Inhibition, Replicate 2” value (E. coli 0157; [Lf] 1 mg/mL) was 0.09274 and the “Biofilm Inhibition, Replicate 3” value (E. coli 0157; [Lf] 1 mg/mL) was 0.02898. For the same molecule, the “Biofilm Inhibition, Replicate 1” value (E. coli 0157; [Lf] 2 mg/mL) was 0.006072, the “Biofilm Inhibition, Replicate 2” value (E. coli 0157; [Lf] 2 mg/mL) was 0.01601 and the “Biofilm Inhibition, Replicate 3” value (E. coli 0157; [Lf] 2 mg/mL) was −0.01297. The “Inhibition of Planktonic Growth” value (Bifidobacterium longum) was “None”, the “Inhibition of Biofilm Formation” value (Enterobacter cloacae) was “Strong (Lf was deemed to have a strong activity if biofilms were eliminated or significantly reduced to less than 90% less than no treatment at concentrations of 10 mg/mL or less after 24 hours of growth)” and the “Inhibition of Biofilm Formation” value (Streptococcus mutans) was “Strong (Lf was deemed to have a strong activity if biofilms were eliminated or significantly reduced to less than 90% less than no treatment at concentrations of 10 mg/mL or less after 24 hours of growth)”. For the same molecule, the “Inhibition of Biofilm Formation” value (Enterococcus faecalis) was “Strong (Lf was deemed to have a strong activity if biofilms were eliminated or significantly reduced to less than 90% less than no treatment at concentrations of 10 mg/mL or less after 24 hours of growth)”, the “Inhibition of Biofilm Formation” value (Candida auris) was “Strong (Lf was deemed to have a strong activity if biofilms were eliminated or significantly reduced to less than 90% less than no treatment at concentrations of 10 mg/mL or less after 24 hours of growth)” and the “survival of mice following wounding” value ([4]; freeze dried powder directly into the wound bed, non-sterile housing, study to day 28, all three untreated mice died by day 12) was “only one mouse died at day 14 and the other two survived to the conclusion of the study at day 28”. The “toxicity of powder administered to wounds” value ([4]; mice, freeze-dried powder of pure Lf administered to the wounds) was “no toxicity was observed”, the “denaturation peak corresponding to apo-Lf” value [5] was ~60 °C and the “denaturation peak corresponding to holo-Lf” value [5] was 90 °C. The “relative ratio of apo to holo-Lactoferrin, DSC peak pattern” value [5] was “heavily skewed towards apo-Lf” and the “binding to Heparan Sulfate” value [6] was “far greater binding to Heparan Sulfate than the research standard”.
